Earlier results on one substance are cited in patent US20180228866A1, “COMPOSITIONS” (Sigmoid Pharma Limited, priority 2015, published 2018).

The subject of this data set is serum TNF-α, IFN-γ, IL-6. To be noted: within 1-4 hours after injection.

As for “OKT3: anti-CD3 mAb, administered as a systemic immunosuppressive agent during organ transplantation”, the “serum levels of proinflammatory cytokines such as TNF-α, IFN-γ, and IL-6” value was “markedly elevated”.
